The text below walks through data of article PMC8844822, “SARM1 is a multi-functional NAD(P)ase with prominent base exchange activity, all regulated bymultiple physiologically relevant NAD metabolites” (iScience, 2022).

In this data set the test system is T1, NC(=O)c1ccc[n+]([C@@H]2O[C@H](COP(=O)([O-])OP(=O)(O)OC[C@H]3O[C@@H](n4cnc5c(N)ncnc54)[C@H](O)[C@@H]3O)[C@@H](O)[C@H]2O)c1.
T1 construct: a soluble fragment Val43-Ile300 with 6x-His tag at C terminus; 6xHis (C); purchased R&D Systems
Briefly: NAD(P)ase activity by HPLC (kinetics, substrates, metal ions). As to conditions: other: hCD38, substrate as labelled, 25°C, pH 7.5. It counts as biochemical, human.

Protocol: hSARM1 species were routinely assayed by the NAD/NADH-Glo^TM Assay (Promega) while both Aplysia cyclase and CD38 were assayed by fluorometry using ϵNAD ([Orsomando et al., 2000]). […] Other reagents used in addition to, or in place of those above are detailed in text or in figure legends, for example metal ions, free bases, dinucleotide analogues, mononucleotides, and ribosides. Assays were all carried out at 25°C except for temperature studies. Reactions were stopped by HClO4/K2CO3 and analysed by C18-HPLC as reported ([Mori et al., 2014]). Only the acid labile NADH and NADPH were treated with 1 N NaOH and neutralized using 1:1 vol of 1.73 M KH2CO3 while the highly hydrophobic metabolites vacor, VAD, VMN and VR, were analysed by a modified C18-HPLC method ([Buonvicino et al., 2018]). Reaction products were quantified from peak areas (see Figure 2A) based on coelution with standards (except for cyclic products from NAD analogues that were not available and were attributed based on UV-spectra and retention times as predicted). Rates were calculated as follows. Hydrolysis and cyclization were measured from product generation from the respective individual dinucleotide substrate used, e.g., free and cyclic ADP-ribosyl moieties from NAD (Figure 1B). A basal value for hydrolysis/cyclization was taken as sum of these latter two products. […]

Broadly, the Km is the concentration of substrate that gives half-maximal velocity. Usually Vmax stands for the top rate of the reaction or transport when substrate is in excess. For human CD38 (Homo sapiens), the Km is 10.4 ± 2.90 µM and the Vmax came out at 6.65 µmol/min/mg.
